According to the supplement of paper PMC9170038:

Tested on: MS2 coat protein
Test: apparent KD of MS2 coat protein; designed switch direction (-1 OFF switch, 1 ON switch): -1; higher = weaker reporter binding
Summary of the method: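 For each design, the apparent KD is the median over clusters of curves fitted to normalised cluster fluorescence. Clusters held RNA switches with common flanks, transcribed on Illumina chips by stalled E. coli RNA polymerase. These were titrated with SNAP-549-labelled MS2 coat protein, doubling from 0.7 or 1.5 nM to 3 µM, without input, with 200 uM small-molecule ligand, or with an oligonucleotide input.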

[1] = input ligand: microRNA oligo, concentration not stated
[2] = Eterna round: R95, input ligand: microRNA oligo, concentration not stated
[3] = Eterna round: R95, input ligand: FMN 200 uM
[4] = Eterna round: R95, input ligand: none

Sequence	apparent KD of MS2 coat protein (input ligand: FMN 200 uM) [µM]	apparent KD of MS2 coat protein (input ligand: none) [µM]	apparent KD of MS2 coat protein [1] [µM]	apparent KD of MS2 coat protein [2] [µM]	apparent KD of MS2 coat protein [3] [µM]	apparent KD of MS2 coat protein [4] [µM]
UUUAAUUGUCAGAUGGGUGACAUGAGGAUCACCCAUGUCACAAGCUUUUUGCUCGUCUUAUAAUUAACCCAUCUGAC [Stov1/11-A1] (Eterna round: R97, puzzle: Sensor, turn-off variant 1)	0.0135	0.0123	–	–	–	–
UGGUAAUCAGUUAGGAUAUCAUCCGGCGUUGUCGGUGAGAAGGAACAUGAGGAUCACCCAUGUAUCGAUUUUAG [BmEX4 B.13] (Eterna round: R97, puzzle: Brourd's mod of Exclusion 4)	0.0265	0.019	–	–	–	–
CUAGCGGAUGUAGGAUAUCGGACUGUUUCAGUCUGAGAAGGACAUGAGGAUCACCCAUGUAUAGCUGCGUGAGUAGCUCGCUAG [JL ENG1 3.96] (Eterna round: R96, puzzle: Exclusion NG 1)	0.0392	0.0198	0.0175	–	–	–
UGCUGAGUUGACAGUGGUAACAUGAGGAUCACCCAUGUAUGUUUGUGCUUAAGCGGGUUGUUUCUUGUUCGUCUCUC [Eternabot (L2) Solution 5] (Eterna round: R97, puzzle: Sensor, turn-off variant 1)	0.262	0.349	–	–	–	–
GUCAGACGAGGAUAUGAUCAAUAAUACAUGAGGAUCACCCAUGUAAUACUGAUCCAUGGAUCAGAAGGCGUCUGAC [E5/5-A4] (Eterna round: R97, puzzle: Exclusion 5)	0.0234	0.0154	–	–	–	–
CUGUGCACGCUGCGGUCCUACAUGAGGAUCACCCAUGUGGUCUGGUGGCGUGGGUCGCCGGACUUGGCUCGUCUUGG [salish99_S_TOV1_R5_025] (Eterna round: R97, puzzle: Sensor, turn-off variant 1)	0.0153	0.0159	–	–	–	–
CUGGACCCGGCAGGAUAUAUUGUGGGCGGGCGUGGAACGACAUGAGGAUCACCCAUGUGAUUGAGGUAGAAGGGCCGAGAGGUC [Excl-NG2-LRO20] (Eterna round: R96, puzzle: Exclusion NG 2)	0.0385	0.0477	0.0307	–	–	–
CGUACUGAAGUGAGGAUAUUGUCUCGGAUACGAAACAAGAAGGCACAUGAGGAUCACCCAUGUUGACAGUACGA [Malc #30 mod 7] (puzzle: Brourd's mod of Exclusion 4)	–	–	–	0.015	–	–
CCUCUACAUGAGGAUCACCCAUGUGAGGAUAUCAAAGCCAGAACGGAUCUCUGGCCCAUGAGAAGGUGCAUGGA [EX1 A.2] (Eterna round: R97, puzzle: Exclusion 1)	0.119	0.0223	–	–	–	–
ACAUGAGGAUCACCCAUGUCAGGUUGGUCCUCUCCGGCUGUUGAGGAUAUAGUCCGGUAUCCGCGCUAGAAGGUGAGGGCUGGC [Aenatbe mod 15] (Eterna round: R96, puzzle: Exclusion NG 3)	0.0214	0.0213	0.0172	–	–	–
AAAUAGCGAGGAUAUACUCCAAUAGCAAAUAUUCCCAUGGCACAUGAGGAUCACCCAUGUAGAAGGCGCAGUAA (Eterna round: R97, puzzle: Exclusion 2)	0.0542	0.0444	–	–	–	–
AAUAUGUGAGGAUAUGCUUUAAGAAGAAUGAGUUUGAAAUAACAUGAGGAUCACCCAUGUAGAAGGCGCUAAAA [Lollin - Beta 1] (puzzle: Exclusion 2)	–	–	–	0.0193	0.0194	0.0259
UAUUAGCAAGCAAAUGGGUACAUGAGGAUCACCCAUGUGCUCGUCUUAUAAGGUACUGUGACGAACGUCACGGUACC [mod--Eli5] (Eterna round: R97, puzzle: Sensor, turn-off variant 1)	0.0278	0.0268	–	–	–	–
ACGCAUUGCCAAAGGUAGUGCGUUACAUGAGGAUCACCCAUGUAGGAUAUGGUAGGCAAAGCUUACCAGAAGGACAUGAUAAUU [Mat - Exclusion NG 3 - Mod of JL - D6] (Eterna round: R96, puzzle: Exclusion NG 3)	0.227	0.0512	0.0448	–	–	–
CUGACUCAAGGAUAUUGUACUGCUGACAUGAGGAUCACCCAUGUAUGUUAACUCGGCCGACGAGAAGGUGACAAAA [BotMod 7 - Jieux - Exclusion 5] (Eterna round: R97, puzzle: Exclusion 5)	0.126	0.111	–	–	–	–
UAUGGGUGUGUGAGGAUAUACGAAGGCAGUGGCCAGUAGAAGGUACAUGAGGAUCACCCAUGUGUCCAAAAGUG [Isonge] (puzzle: Brourd's mod of Exclusion 4)	–	–	–	0.0139	–	–
AGUACUAUCGCGAAAGCGAUAGUACAAAAAGCAAGUGAAACAUGAGGAUCACCCAUGUCCUCAUUUGCUCGUCUUAU [Mat - Sensor v2 -ver2- JL mod - D89] (Eterna round: R96, puzzle: Sensor v2, turn-off variant 2)	0.0121	0.0143	0.39	–	–	–

Sequence	apparent KD of MS2 coat protein (input ligand: FMN 200 uM) [µM]	apparent KD of MS2 coat protein (input ligand: none) [µM]	apparent KD of MS2 coat protein [1] [µM]	apparent KD of MS2 coat protein [2] [µM]	apparent KD of MS2 coat protein [3] [µM]	apparent KD of MS2 coat protein [4] [µM]
AAUUACAAGCAAAGAUCCUACAUGAGGAUCACCCAUGUGCUCGUCUUAUAAAGUACUAUCACGAAAGUGAUAGUACA [Mat - Sensor v3 - turn-off var 1 - Eli Mod - D76] (puzzle: Sensor v3, turn-off variant 1)	–	–	–	0.0135	0.222	0.232
GGUCGAAGUGUGAGGAUAUGCUGGUCCUUGGAUCAGCAGAAGGCACAUGAGGAUCACCCAUGUGGUAAACGACC [Mat - Exclusion 4 - Eli Mod - D34] (Eterna round: R97, puzzle: Brourd's mod of Exclusion 4)	0.982	0.171	–	–	–	–
CUGUACUGAGGAUAUACAUGAGGAUCACCCAUGUGAUCUAGUGCACGCGUACGUGUACGUAGAAGGCAGUACAG [Mat - Exclusion 3 - Eli Mod - D38] (Eterna round: R97, puzzle: Exclusion 3)	0.792	0.0565	–	–	–	–
GAUUGAGAGCAGGAUAUAUUCCUGAUGUAUGAAGUAGAAGGGCUCACAUGAGGAUCACCCAUGUGAUCCUGAAU [JL Dibri mod 17 mod] (Eterna round: R97, puzzle: Exclusion 6)	0.0153	0.0143	–	–	–	–
AUUGGGUGAGGAUAUCCAUCUGGAUCAGACUAGAUCCUGAUGGAGAAGGCACAUGAGGAUCACCCAUGUGAGUU [Eli 4x 4.34] (Eterna round: R97, puzzle: Exclusion 4)	0.108	0.0956	–	–	–	–
GACUCAAUCCGAGGAUAUUGCCAGCGCUGCUAUCACAUGAGGAUCACCCAUGUAUCCUCGGCUUUCGAGAAGGCGGAUUGAGCG [Eternabot solution 35] (Eterna round: R96, puzzle: Exclusion NG 2)	0.132	0.0499	0.0468	–	–	–
UAUAGACAUGAGGAUCACCCAUGUGAGGAUAUGUACAACAACAAGCCGGAAGCGGAAUACAGAAGGCACAAAUA [JR_Exclusion1_Sub029] (puzzle: Exclusion 1)	–	–	–	0.0357	0.0368	0.0514
GUACUGACAGGAUAUACAUGAGGAUCACCCAUGUGCCCUUAUAGAUGCAAAGCAUCUAGUAGAAGGGUCUGUAC [Omei Ex3 Model Bachelor's Dilema v24] (Eterna round: R97, puzzle: Exclusion 3)	0.0328	0.0269	–	–	–	–
AGAUCUAGGACAGGAUAUACCGAUGGCUUCAUCGAAGAUGAAGCCAUCACAUGAGGAUCACCCAUGUAGAAGGGUCCUAGAUCA [Omei Exc(NG) 2Av9] (Eterna round: R96, puzzle: Exclusion NG 2)	0.0115	0.0137	0.00995	–	–	–
GAUGCUUCGGCAUCUACAAGCUUUUUGCUCGUCUUAUUAACAUGAGGAUCACCCAUGUCAAAGAGACCUCAUGUAUU [Sensor v3 - turn-off variant 2 - 4] (puzzle: Sensor v3, turn-off variant 2)	–	–	–	0.0189	0.314	0.381
UGGUGUGCGAAGGAUAUGUAGGCUAUCAUGUCAAUAGAAGGUUGCACAUGAGGAUCACCCAUGUAAGCCACUUA [Eternabot (L1) Solution 17] (Eterna round: R97, puzzle: Exclusion 6)	0.0692	0.083	–	–	–	–
CUGGUCCGAGGAUAUAUAUUGUGAUACAUGAGGAUCACCCAUGUAAUAAUAUGGAUAUAAAUAGAAGGCGGACUAG [Mat - Exclusion 5 - JL mod - D49] (puzzle: Exclusion 5)	–	–	–	0.023	0.0358	0.0277
GGCCCUAAGGUCAGAUUCACAAGCUUUUUGCUCGUUUUAACAUGAGGAUCACCCAUGUCUAGUGGAUUUGAUCCUUA [Sensor v3, turn-off variant 2 (MOD of Indiso v.7)] (puzzle: Sensor v3, turn-off variant 2)	–	–	–	0.02	0.0218	0.0189
GGGCGUGAAGGAUAUACAUGAGGAUCACCCAUGUGGGAGGAGAGUGGUGAGGAGGCUGGUAGAAGGUCAGGAGG [JR_Exclusion3_Sub008] (puzzle: Exclusion 3)	–	–	–	0.0277	–	–
GGCGAAGUAGGAUAUACAUGAGGAUCACCCAUGUAACCUGAUGGCGUAGGUCUUCUAUGUAGAAGGACUACGCC [jl-ex3-4.39 ViennaUCT mod] (Eterna round: R97, puzzle: Exclusion 3)	0.0159	0.0181	–	–	–	–
ACGAAGCACGAGGAUAUGACCAUAGUGAUAUGGUCAGAAGGCGUAACAUGAGGAUCACCCAUGUAGUGGCCUCG [Eternabot (Original) Solution 12] (Eterna round: R97, puzzle: Exclusion 6)	0.212	0.0201	–	–	–	–
